One test has as its target CD47 (UniProt Q08722). Description: FACS binding CHO-K1 cells expressing CD47. A general note: Flow cytometry measures light scatter and fluorescence of single cells or particles in a stream.
A further test addresses human CTLA-4 (human) (UniProt P16410). The test is described as follows: FACS binding CHO-K1 cells expressing human CTLA-4.

Chain of human CTLA-4 (human) (P16410 36-223): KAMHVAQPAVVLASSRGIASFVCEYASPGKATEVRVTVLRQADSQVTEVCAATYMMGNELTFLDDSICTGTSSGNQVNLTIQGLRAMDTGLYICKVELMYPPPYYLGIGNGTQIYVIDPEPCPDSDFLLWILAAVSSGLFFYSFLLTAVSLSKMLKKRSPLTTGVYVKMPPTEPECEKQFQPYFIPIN
Chain of CD47 (Q08722 19-323): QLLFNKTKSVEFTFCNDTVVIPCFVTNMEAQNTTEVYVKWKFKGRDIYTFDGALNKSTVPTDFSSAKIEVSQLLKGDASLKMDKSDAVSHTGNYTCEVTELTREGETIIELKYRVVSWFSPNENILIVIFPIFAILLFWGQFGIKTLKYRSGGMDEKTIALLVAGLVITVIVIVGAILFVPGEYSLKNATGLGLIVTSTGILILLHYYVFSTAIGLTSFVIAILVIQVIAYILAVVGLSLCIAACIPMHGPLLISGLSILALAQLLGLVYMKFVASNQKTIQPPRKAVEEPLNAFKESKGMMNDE

On to human IgG, for which the results for the EC50 with CD47 and in the test with human CTLA-4 (human) were 0.00385 µM and 0.0421 µM, respectively.

Broadly, the EC50 is the concentration needed to bring the measured effect to its halfway point. The low end stands for an effect from little substance, the high end for a need for much substance.

Source of the values: patent US20220332848A1.
